B1: Catenin beta-1 (Homo sapiens), P35222 (parent)
chain: MATQADLMELDMAMEPDRKAAVSHWQQQSYLDSGIHSGATTTAPSLSGKGNPEEEDVDTSQVLYEWEQGFSQSFTQEQVADIDGQYAMTRAQRVRAAMFPETLDEGMQIPSTQFDAAHPTNVQRLAEPSQMLKHAVVNLINYQDDAELATRAIPELTKLLNDEDQVVVNKAAVMVHQLSKKEASRHAIMRSPQMVSAIVRTMQNTNDVETARCTAGTLHNLSHHREGLLAIFKSGGIPALVKMLGSPVDSVLFYAITTLHNLLLHQEGAKMAVRLAGGLQKMVALLNKTNVKFLAITTDCLQILAYGNQESKLIILASGGPQALVNIMRTYTYEKLLWTTSRVLKVLSVCSSNKPAIVEAGGMQALGLHLTDPSQRLVQNCLWTLRNLSDAATKQEGMEGLLGTLVQLLGSDDINVVTCAAGILSNLTCNNYKNKMMVCQVGGIEALVRTVLRAGDREDITEPAICALRHLTSRHQEAEMAQNAVRLHYGLPVVVKLLHPPSHWPLIKATVGLIRNLALCPANHAPLREQGAIPRLVQLLVRAHQDTQRRTSMGGTQQQFVEGVRMEEIVEGCTGALHILARDVHNRIVIRGLNTIPLFVQLLYSPIENIQRVAAGVLCELAQDKEAAEAIEAEGATAPLTELLHSRNEGVATYAAAVLFRMSEDKPQDYKKRLSVELTSSLFRTEPMAWNETADLGLDIGAQGEPLGYRQDDPSYRSFHSGGYGQDALGMDPMMEHEMGGHHPGADYPVDGLPDLGHAQDLMDGLPPGDSNQLAWFDTDL

Variants of: B1
Details: with ron_mouse Mst1r

Row | effect of a mutation on the interaction | Variant
1 | disrupting interaction | Y654F;Y670F

Reference: IntAct's records for PubMed 21423209
